# Key:
# [1] = tested on: triple-negative breast cancer (TNBC) tumors; assay: Flow cytometry of immune cells in harvested TNBC tumors; assay type: in vivo, BALB/c mice
# Description: At study completion, the tumors were harvested, digested, and single cell suspensions stained for immune cells. Dual-epitope blocking of CCR2 reduced TAMs, MDSCs, and M2-Macrophages and increased M1-Macrophages in triple-negative breast cancer (TNBCs).
# We observed that dual-epitope scFv combination treatment outperforms small molecule CCR2 antagonist (SMA) and decreased tumor-associated macrophages (TAMs), myeloid-derived suppressor cells (MDSCs), and M2-macrophages and increased M1-macrophages. Single cell suspension from the harvested tumors were analyzed by flow cytometry. The cells were stained for (A) CD68+ TAMs, (B) MDSCs, (C) MHC class II macrophages (M1), and (D) CD206+ macrophages (M2).
# Treatment groups included: PBS, CCR2 small molecule antagonist (SMA), PEG(20K)-ECL2-scFv, PEG(20K)-NTD-scFv, and NTD & ECL2 combination (co-dosing of PEG(20K)-ECL2-scFv and PEG(20K)-NTD-scFv), with *p<0.05, **p<0.01, and ***p<0.001 by one-way ANOVA followed by Tukey's post-test.
# [2] = tested on: TNBCs in the mammary fat pads; assay: TNBC tumor growth, dual epitope blocking; assay type: in vivo, female BALB/c mice; conditions: scFvs 1 mg/kg, SMA 2 mg/kg, tail vein, days 7, 9, 12, 14, 16, 18
# Protocol: Further, we evaluated the effect of dual epitope blocking of CCCR2 on tumor growth. TNBCs were injected into the mammary fat pads of female BALB/c mice. Treatment of tumored mice started on days 7, 9, 12, 14, 16, and 18. To enhance the circulation half-life of the NTD-scFv and ECL2-scFv, we used site-directed mutagenesis to introduce a cysteine at the C-terminus of the scFvs for covalent attachment of a PEG-maleimide with molecular weight of 20 kDa. Animals (n=10 per group) were systemically (via tail vein injection) treated with (1) PBS, (2) CCR2-small molecule antagonist (SMA), (3) PEG(20K)-NTD-scFv, (4) PEG(20K)-ECL2-scFv, and (5) a NTD and ECL2 combo (co-dosing of PEG(20K)-NTD-scFv and PEG(20K)-ECL2-scFv).
# [3] = tested on: RAW 264.7 macrophage cells; assay: Cell binding analysis by flow cytometry, RAW 264.7; set-up: species or system mouse; conditions: fluorescently labeled scFv
# Protocol: FIG. 13. Binding of monomeric 58C-scFv (circles), low valency 58C-scFv attached to liposomes (triangles), and high valency 58C-scFv attached to liposomes (squares) to RAW 264.7 macrophage cells as determined by flow cytometry. […] The liposomes were incubated with DyLight 650 NHS Ester labeled 58C-scFv at 4° C. overnight. Cells were detached with 5 mM EDTA and re-suspended in PBS to a concentration of 50,000 cells per 300 μL. The cells were incubated with various dilutions of DyLight 650 NHS Ester labeled 58C-scFv (free, low degree of valency, or high degree of valency) for 1 h at 4° C. Cells were washed three times with 5% BSA and analyzed in the APC channel of a MACSQuant Analyzer 10 flow cytometer (Miltenyi Biotec, Bergisch Gladbach, Germany).
# Cells were detached with 5 mM EDTA and re-suspended in PBS to a concentration of 50,000 cells per 300 μL. Cells were plated in a 48-well plate and incubated for 30 min at 4° C. After removing the PBS solution, the cells were incubated with various dilutions of DyLight 650 NHS Ester labeled 58C-scFv for 1 h at 4° C. Cells were washed three times with 5% BSA, detached with EDTA, and analyzed in the APC channel of a MACSQuant Analyzer 10 flow cytometer (Miltenyi Biotec, Bergisch Gladbach, Germany).
# [4] = tested on: 4T1 breast cancer cells; assay: Cell binding by flow cytometry, 4T1; conditions: MFI
# Description: FIG. 16. ECL2-scFv binding to the ECL2 domain of the CCR2 chemokine receptor.
# [5] = target: T1, human CCR2 (Homo sapiens, UniProt P41597); assay: Cross-reactivity with human CCR2; assay type: binding
# T1 construct: endogenous in cells; host or cells: MDA-MB-231 human breast cancer cells
# T1 sequence (P41597 whole entry): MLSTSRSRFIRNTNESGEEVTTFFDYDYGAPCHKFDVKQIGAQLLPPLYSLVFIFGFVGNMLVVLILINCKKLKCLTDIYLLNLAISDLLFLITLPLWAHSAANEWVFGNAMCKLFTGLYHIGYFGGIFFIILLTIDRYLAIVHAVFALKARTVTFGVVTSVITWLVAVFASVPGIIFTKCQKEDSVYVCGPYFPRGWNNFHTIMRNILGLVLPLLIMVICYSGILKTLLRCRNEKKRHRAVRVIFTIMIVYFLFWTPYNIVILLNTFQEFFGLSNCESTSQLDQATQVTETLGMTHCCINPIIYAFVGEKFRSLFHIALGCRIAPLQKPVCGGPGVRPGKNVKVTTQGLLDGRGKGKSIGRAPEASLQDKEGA
# [6] = tested on: RAW 264.7 mouse macrophages; assay: Macrophage polarization, RT-PCR of M1/M2 marker genes, RAW 264.7; assay type: cell-based; conditions: RAW 264.7, 24 h; LPS 100 ng/mL, IL-4 20 ng/mL, 58C-scFv 1 μM
# Protocol: RAW 264.7 mouse macrophages were incubated with either LPS (100 ng/mL), IL-4 (20 ng/mL; PeproTech, Rocky Hill, NJ), or 58C-scFv (1 μM) for 24 h. For the multivalency studies, RAW 264.7 mouse macrophages were first incubated with IL-4 (20 ng/mL) for 24 h to stimulate an M2 phenotype. Following the 24 h incubation, fresh media with 58C-scFv (89 nM) was added to the cells and incubated for an additional 24 h. Total RNA was isolated with QIAzol lysis reagent (Qiagen, Germany) and total cDNA was generated using the New England Biolabs first stand synthesis kit (Ipswich, MA). RNA expression was detected by reverse transcription (RT)-PCR performed with the SYBR Green PCR kit (Qiagen). For each sample, the ΔΔCt value was calculated. Experiments were performed in triplicate. […]
# To assess the effects of the anti-CCR2 scFvs on macrophage polarization, RAW 264.7 and bone marrow-derived macrophages (BMDMs) were treated with NTD-scFv and ECL2-scFv. […] To determine whether these changes were additive, synergistic, or antagonistic, the combination indices (CI) were calculated for NTD-scFv and ECL2-scFv by treating cells with a combination of NTD-scFv and ECL2-scFv. CI was calculated by: CI=(CA,X/ICX,A)+(CB,X/ICX,B), where CA,X and CB,X are the concentration of drug A (in this case NTD-scFv) and B (here, ECL2-scFv) used in combination to achieve x % drug effect. […]
molecule,measurement,setting,value
Cc1ccc2c(c1)C1(CCN(CCc3nc(-c4ccccc4)oc3C)CC1)OC(=O)N2 [RS 504393],"effects on TAMs, MDSCs, M1 and M2 macrophages compared to PBS control","[1]; FIG. 24A-D, SMA 2 mg/kg",not significant
same,"change in Tregs, CD8+ and CD4+ T cells compared to PBS treated mice",[1]; flow cytometry,no statistically significant reduction
same,"reduction in tumor volume, order among treatment groups",[2],weakest effect
"ECL2-scFv: scFv against the 2nd extracellular loop (ECL2) of CCR2; Example 3 names scFv 4h, SEQ ID NO:6 (protein, listed as Homo sapiens) scFv: MKKTAIAIAVALAGFATVAQADYKDDDDKLQSVLTQPPSASGTPGQRVTISCSGSSSNIGSHTVNWYQQLPGTAPKLLIYRNNQRPSGVPDRFSGSKSGTSASLAISGLRSEDEADYYCAAWDDSLSGVVFGGGTKLTVLGEGKSSGSGSESKASQVTLKESGAEVKKPGASVKVSCKASGYTFTNFYIHWVRRAPGQGLEWMGIINPSDGRTTYAQKFQGRVTMTRDTSTSTLYMELTSLRSEDTAVYYCGRGGHYSNYFGQPSTWGQGTLVTVSSVEAS",binding to RAW 264.7 cells,[3],binds
same,binding to 4T1 breast cancer cells,[4],binds
same,"cross-reactivity, binding to human CCR2",[5],bind to human CCR2
"IL-4: interleukin, M2 promoting agent (protein, UniProt P05112 25-153, looked up) Interleukin-4: HKCDITLQEIIKTLNSLTEQKTLCTELTVTDIFAASKNTTEKETFCRAATVLRQFYSHHEKDTRCLGATAQQFHRHKQLIRFLKRLDRNLWGLAGLNSCPVKEANQSTLENFLERLKTIMREKYSKCSS","macrophage polarization, M1/M2 gene expression compared to the untreated control",[6],increased both Arg-1 and Mgl2 gene expression
